Results: the RNAGym collection of RNA variant scans (doi:10.7554/elife.80360)

B1: Twister Ribozyme (parent)
chain: AACACUGCCAAUGCCGGUCCCAAGCCCGGAUAAAAGUGGAGGGGGCGG

Variants of: B1
Experiment: self-cleavage, relative activity (ratio to wild type); higher = more cleavage; co-transcriptional

Variant	self-cleavage
U6G C9A	0.279
G7A C15A	0.111
G7A C15U	0.377
G7C C46G	0.0721
G7C C46U	0.0589
G7C C46A	0.0371
G7U G39U	0.0651
G7A G42A	0.176
G7A G42C	0.258
G7A U18A	0.0724
G7A U18C	0.0816
G7A U18G	0.066
U6G A10G	0.644
U6G A10C	0.136
G7C G28C	0.0717
G7A C27U	0.11
G7A C27G	0.0632
G7C C20A	0.0744
C8A C14U	0.597
C8A C14G	0.0608
C8A C14A	0.529
G7A A33U	0.269
C8A A10U	0.239
G7A C20A	0.0724

Variant	self-cleavage
G7A C20G	0.0749
U6G G13A	0.086
U6G G13U	0.0456
U6G G13C	0.078
U6C C46G	0.589
U6C C46U	0.625
G7A G24C	0.0973
G7A G24A	0.0655
G7C C15U	0.0844
G7U G47A	0.0641
G7U G44C	0.0951
U6G G44A	0.229
U6G G44C	0.234
U6C C8G	0.0656
U6C C8A	0.047
G7C C21A	0.0462
G7C U18C	0.0305
G7C U18G	0.0952
G7A G45A	0.397
G7A G45C	0.139
G7U A33G	0.0484
G7U A33C	0.0647
U6C C15G	0.1
G7A G48A	0.26

Variant	self-cleavage
G7A G48U	0.381
G7A G48C	0.457
U6C U18A	0.0773
U6C G7U	0.0403
G7A G16U	0.161
G7A G16C	0.084
G7A G16A	0.226
G7A U12A	0.441
U6C G44U	0.502
G7A C19U	0.122
G7A C19G	0.0847
G7U G28U	0.0862
G7U G28C	0.0665
U6C G36C	0.112
G7U C9G	0.0496
G7U C9A	0.0711
G7U G36U	0.0615
G7U G36A	0.0763
G7U G36C	0.0408
G7A C8A	0.0866
G7A C8G	0.153
G7A C8U	0.0616
G7C C26U	0.0512
U6C C21G	0.109

Variant	self-cleavage
U6C C21A	0.0427
G7U G42C	0.0955
G7U G42A	0.0796
U6C U12C	0.613
U6C U12A	0.663
U6C U12G	0.465
U6C C9A	0.0857
G7U U31C	0.111
C8A C19G	0.0926
C8A C15A	0.134
U6G C19A	0.0816
U6G C19U	0.264
U6G C19G	0
G7C G39U	0.058
G7C G39A	0.0735
C8A A22G	0.107
C8A A22C	0.45
G7C A23C	0.0613
G7C A23G	0.13
G7U A11G	0.131
U6C A35G	0.832
U6C A35U	0.619
U6G G29C	0.139
U6G G29A	0.19

Variant	self-cleavage
G7A A11U	0.573
G7A A11G	0.48
U6G A33C	0.367
G7A G41A	0.122
G7A G41C	0.143
U6C G41C	0.13
U6C G41U	0.113
U6C G41A	0.117
G7U C20U	0.0823
G7U C20G	0.0693
G7C U31A	0.0718
G7C U31C	0.0704
G7C U31G	0.0544
U6G C14G	0.0983
U6G C14A	0.313
G7A	0.615
G7U	0.143
G7C	0.0658
U6C C19A	0.104
U6G G42A	0.0807
G7U G13U	0.0485
G7A C25U	1.09
U6C U31A	0.581
U6C U31C	0.712

Variant	self-cleavage
U6C U31G	0.422
G7A C21G	0.0478
U6C G28C	0.215
U6C G28U	0.295
U6C G28A	0.319
U6G G45A	0.141
G7C G43U	0.0777
G7C G43A	0.0617
U6G C46G	0.406
U6G C46A	0.411
U6G C46U	0.632
U6G A30C	0.246
U6G G41A	0.156
U6G G41U	0.129
G7A G17C	0.0766
U6C G38A	0.423
U6C G38C	0.249
G7U C15U	0.101
G7U C15G	0.0331
G7C A30G	0.0729
G7U C19A	0.0864
U6G G7A	0.501
U6G G7U	0.626
G7A G38U	0.168

Variant	self-cleavage
G7A A23G	0.0819
G7U A10G	0.237
G7U A10U	0.0807
U6C A40U	0.119
U6C A40C	0.11
U6C C20G	0.0668
G7A G29A	0.325
U6G C26A	0.0837
U6G C26U	0.0975
U6C G48U	0.607
U6C G48C	0.829
U6G A23C	0.0334
U6G A23G	0.0873
U6G A34U	0.493
U6C C25A	0.108
G7C G45A	0.0964
G7C G45C	0.0912
G7C A11G	0.106
G7A A32U	0.507
G7A A32G	0.323
G7A A32C	0.38
G7U G43U	0.102
G7U G41A	0.0662
G7U G41U	0.0899

Variant	self-cleavage
G7U G16C	0.0533
G7C G42U	0.0563
U6G G28A	0.138
U6G G28U	0.0702
U6G G28C	0.16
G7A G28A	0.215
G7A G28C	0.227
U6G G17A	0.075
U6G G17U	0.0541
U6G G17C	0.0484
G7C U12A	0.0478
G7C U12G	0.0541
C8A A34G	0.701
C8A A34U	0.675
C8A A33C	0.279
G7U G29U	0.0673
G7U A23C	0.0594
G7U A23G	0.0791
G7U G45C	0.118
G7U C26U	0.0446
G7C G13U	0.0637
U6G U31G	0.429
G7A A34C	0.118
G7A A34G	0.111

Variant	self-cleavage
G7A A40G	0.157
U6G C15A	0.301
U6G C15U	0.569
U6C C14U	0.473
U6C C14A	0.504
U6G C21G	0.116
G7A A35C	0.493
U6G A40C	0.0854
U6G A40U	0.181
U6G G24U	0.145
U6G G24C	0.356
U6C C26U	0.0774
G7A C14A	0.371
U6C G24U	0.0929
U6G A11C	0.173
U6G A11G	0.52
G7U U18G	0.0649
G7U U18A	0.0251
G7U U18C	0.0819
U6G G36A	0.0942
G7U C46G	0.047
G7U C46U	0.103
G7C G17A	0.0642
G7C G17C	0.0528

Variant	self-cleavage
G7A G47A	0.271
G7C G24C	0.059
G7C G24U	0.0628
G7A C9G	0.0915
G7A C9A	0.0651
C8A A40C	0.113
C8A A40U	0.2
C8A A40G	0.17
G7C A22G	0.0331
G7C A22U	0.0623
U6G G39A	0.12
G7C C8A	0.0479
G7U A30G	0.163
C8A A30C	0.147
C8A A30U	0.284
G7U C25G	0.401
U6G A32C	0.419
U6G A32G	0.337
G7C C25U	0.128
G7A C26A	0.0788
U6G C25G	0.0804
U6G C25U	0.252
G7U A40C	0.0967
G7U A40U	0.072

Variant	self-cleavage
G7U A40G	0.0793
U6G G16C	0.156
U6G G16U	0.296
G7U G17C	0.0441
G7U G17A	0.0885
G7C C19U	0.0513
G7C C19A	0.0521
C8A A32U	0.275
G7C C9A	0.0747
G7C G36A	0.0583
G7C G36U	0.0725
G7C G48A	0.0718
G7C G48U	0.0851
G7U U37C	0.0889
G7U U37G	0.0777
U6C G45C	0.206
U6C G45A	0.6
U6C G45U	0.495
U6G C8U	0.16
U6G C8G	0.2
G7U A32C	0.0917
G7U G24A	0.0738
G7C G47A	0.0829
G7C G47U	0.0642

Variant	self-cleavage
U6G U37G	0.196
U6G U37C	0.159
U6G U37A	0.112
G7A C46G	0.414
G7A C46U	0.579
U6G G38C	0.168
U6G G38A	0.315
U6C A34G	0.788
U6C A34U	0.333
U6C C27U	0.275
U6C C27G	0.0742
G7A A30C	0.108
G7A A30U	0.425
G7U C8A	0.0463
G7U C8U	0.0467
U6C G17U	0.072
G7C A40G	0.0675
C8A C20A	0.0847
G7C U37A	0.0472
G7C U37G	0.062
U6C G42A	0.0608
G7C C14G	0.0351
G7C C14A	0.0617
U6G A35G	0.281

Variant	self-cleavage
U6G U18G	0.0678
U6G G48U	0.308
C8A A23G	0.0496
C8A A23U	0.0553
C8A A23C	0.0825
G7C A33C	0.0837
G7C A33G	0.064
G7C A33U	0.0354
G7C A32U	0.0629
G7U C21A	0.0755
G7U C27U	0.079
G7U C27A	0.0728
G7U G48C	0.123
G7U G48U	0.0928
G7C G16U	0.0598
G7C G16A	0.0653
G7C A35G	0.0589
G7U A34U	0.0892
C8A C9A	0.0842
C8A C9U	0.0937
C8A C9G	0.122
G7A G13A	0.0834
G7A G13C	0.0492
G7A G13U	0.0584

Variant	self-cleavage
U6C U37G	0.181
G7A U31A	0.599
U6G G43A	0.144
U6G G43C	0.13
U6G C27G	0.0245
U6G C27U	0.186
U6G C27A	0.0375
U6C G16U	0.371
G7U C14A	0.133
G7U C14G	0.0477
G7C G41A	0.0519
G7C G29U	0.0704
U6G G47A	0.179
U6G G47C	0.179
G7A G43U	0.152
G7U G38A	0.0965
U6G A22G	0.106
U6G A22C	0.485
U6C G29C	0.173
G7A G36C	0.113
G7A G36U	0.108
G7C G44C	0.0685
